In the DeepSol protein solubility set:

Test: soluble on expression in E. coli; label from the status in PepcDB or PDB records

Sequence | soluble on expression in E. coli
MGSDKIHHHHHHMQCMIDAMRSIVSLISHATVALAGSLAVAGCSLSPQPDHDTAATTPERLEARIHKVHRFDPQAFTQGLELDGDRLLVSTGFYGESGMFSMEVGNAPQQRTPLDPELFGEGITKTGDHIWQLTWRDGIAFKRDATTFQQLGTVSYEGEGWGLCHFDDRVIMSNGSDELIIRDPESFDERSRIRVTNQGNGVSNLNELECVPNDPATGKDTIYANVFLSTDIMRIDATTGAVTGIIDASSIPNNAVADTNNVLNGIAWIPSSDRFYITGKRWPDLYEVTFVSKMSNHGQS | not soluble
MSLISPIIRLSHVTFQTSSAARVIKEFVTKYQFHPFAARGLDGGSPCQVALKNGGVVFMVNENTPKTHENSVLLYDFPLQIPFPDTACNVTFEVEDVSGLYHHLVDEGCQLLLPPTELHDDFGSVTYCIVKSVVGNVSHTLIDRTHYRSSFLPGFEYLKNSTHNLSSGNMTHVDHIAYTCPRGTSPSILEWYRRCFGFQHFPLSKGEDPERGFEIIGPRIGLRLTSLVCPKLSKECKLVLAESLPQEGINQVDEFMQQHTGGGIQHIGLSTPDIFKAAEDLSKLGVCFAIQPSSYYSETKKQKEIYSVGLEPQMLAQFGILMDSATDDILSNDAPKKFLLQVFAEPLFSKNSAFLELIERRSAEGFGEGNIRALWRSMQDLQEDQTVKEQEGEGHHHHHH | soluble
MPTPKAFTLLGPTACGKTALALKIAETLPVEIISLDSALLYTGMDIGTAKPSASERAFVPHHLIDIITPVQTYSAARFVEDCTRLTGEITARGKCPLIVGGTMMYFRALTQGLNDLPEADACLRADLDEQKQMYGLDFLYRTLQKVDPETACRLKPNDSQRIGRALEVYYLTGRPMSAHLNGQPEHTLPFELYTAALIPEDRARLHENIALRFHLMLEQGFIGEVENLRRRYPGLTADSPAIRCVGYRQAWEHLDGATDRQTFIEKGIAATRQLAKRQLTWLRKTPLDCVADPFSDGTSGTRLIEAAKRFFGELEHHHHHH | soluble
MITVVIADRLGKGQNVAKGVEQAGGRAVVVPGMGADMRLGDVMQQEKADLGISFCGSGGAGALTAATKYGYPERHGMRSIEEGVTAINDGKTVLGFGFMDQEELGKRVTEAFIKKHGA | not soluble
GPVNPAENFRVLVKQKKASFEEASNQLINHIEQFLDTNETPYFMKSIDCIRAFREEAIKFSEEQRFNNFLKALQEKVEIKQLNHFWEIVVQDGITLITKEEASGSSVTAEEAKKFLAPKD | soluble
MAHHHHHHMLHCSREEVGELLIDSCKRSVGTSVELDTLLSNKNTSKVAPDATAATIMQVRMMYGKDDSGDLSYAEMTRLVEGLSSSKDLTERILKPFEDDNRHTIAFSEFAKVYSNAVSFKELGYVFQDLAGGQQTISRDTFASFVCDIQDEDWDAETLNEKLALMGCVGIDGITENNFVGYIMSPYFDFAMEKKLTGVYQDMDQIMCCYFISSSHNTYLTGDQLTSKSSAQMYKKGASRRVPVREAICRNGPHGEPIVCHGYTRTSCIAFEECVKMIRQYAFTASAYLVILSLGVHTSVEQQDKMAEILEEGLGSLLFWPPWGSNEKPTMAFSPNNLKNKILVKAKRGDFPAREPRVDKDDDATETDSMASTNNADYLKMKEARRKAGKDEVRVSAKLSAIVSIESSKYQGVKDLSYLKDKQPHHCSSYSERKGKAIVREAHNALVCINDTCLSRVFPAGSRIDSSNYRPLLYWVSGCQMVAINWQSSDTFGWRLNGCIFLDSGCCGYLLKPDYLRPVTCPDVAVPEYLRSLTVEVIWGFALPSAKQARGCRPVCDSFPRGP | not soluble
MNMEEITPVDILLQLVKMGKVDPWNIDIVDLTEKYIKMLREMQELDLRISARAILAASILVRMKSEALLRGEEEENKRGEEEKIKVDVDPLVPPLRRVERYYTLDDLIEALMDALEEAEKRKPKKKKKVEIDEEIFVVDDFRVDIEKYVEELYKVVKKIYEKTKTPIKFWDLVPDVEPKIIARTFLYLLFLENMGRVEMIQEEPFGEILVVPV | soluble
MLNLCDEDFDAMELVEGALALNKAINPETQLEWAHIELARLLKEAELALVHERDEKARFEAFLRLFYQEWGFSGDREAYFDSRNAFIDQVLQRRKGIPVSLGSLLLYLGHKLGFPLNGISFPTQFLLSLNWSGERPIYLNPFNGEIVSQHTLQAWLVGHKGPLAKLKPQHLQSVDNPTIIGRWLALLKSALLREERYTLALRCTDLALTFVPDDPYEIRDRGFIYQQLQCHQIAISDYQYFIEHCPNDPAAELLKTQVNALSHDSQVTLHLEHHHHHH | soluble
MAHHHHHHMQRHSSHLLLLLVAVVIPVCSEDKLDFTKLRDPFDMDEINRKLQEKVADDDPVQKAMPDPMDPKFRAPLRCSACGAVIEHAVRLLRPIIERQSERAARSGGVLPADALPKEYEMVDIFENLCGEVGRLYGLEVEKDKKRPTLRFSKSFGVSRLQGAWMPSFLTSTCEGVLDVEGEEKLAAMILGVARSEAEAGRGKVISMNPDQGIVDKVREMVCTKWEESAKGCDAYGVAIDPRETDNDDGAEEAASDL | soluble
AHHHHHHGSFKILRKERLAPGINLFEIESPRIAKHAKPGQFVMIRLHEKGERIPLTIADVDISKGSITIVAQEVGKTTRELGTYEAGDYILDVLGPLGKPSHIDYFGTVVMIGGGVGVAEIYPVAKAMKEKGNYVISILGFRTKDLVFWEDKLRSVSDEVIVTTNDGSYGMKGFTTHALQKLIEEGRKIDLVHAVGPAIMMKAVAELTKPYGIKTVASLNPIMVDGTGMCGACRVTVGGEVKFACVDGPEFDAHLVDWDQLMNRLAYYRDLEKISLEKWERERRMV | soluble
MGSSHHHHHHSSGLVPRGSDLQEDEDGVYFSSYGHYGIHEEMLKDKIRTESYRDFIYQNPHIFKDKVVLDVGCGTGILSMFAAKAGAKKVLGVDQSEILYQAMDIIRLNKLEDTITLIKGKIEEVHLPVEKVDVIISEWMGYFLLFESMLDSVLYAKNKYLAKGGSVYPDICTISLVAVSDVNKHADRIAFWDDVYGFKMSCMKKAVIPEAVVEVLDPKTLISEPCGIKHIDCHTTSISDLEFSSDFTLKITRTSMCTAIAGYFDIYFEKNCHNRVVFSTGPQSTKTHWKQTVFLLEKPFSVKAGEALKGKVTVHKNKKDPRSLTVTLTLNNSTQTYGLQ | soluble
MTKSLFRQSFLTDTLDVHIDVAPAEQVLSNGVQLKLYQRGVLEVIPENPTQETKNIIISCGIHGDETAPMELVDSIIKDIESGFQKVDARCLFIIAHPESTLAHTRFLEENLNRLFDEKEHEPTKELAIADTLKLLVRDFYQDTEPKTRWHLDLHCAIRGSKHYTFAVSPKTRHPVRSKALVDFLDSAHIEAVLLSNSPSSTFSWYSAENYSAQALTMELGRVARIGENALDRLTAFDLALRNLIAEAQPEHLSKPCIKYRVSRTIVRLHDDFDFMFDDNVENFTSFVHGEVFGHDGDKPLMAKNDNEAIVFPNRHVAIGQRAALMVCEVKTRFEEGELVYDLEHHHHHH | soluble
MPDPQGGEIVYVGGTLLDLNRYELYYQFDFTAKYEITEEDTRQAEDVNALPDLSLLSIDVDYIDPGTGPDGDIEHHLEMRFPQN | not soluble
MGSDKIHHHHHHMDNLVDVFCDVDDFCAVFMPQWKKQCVTDGTRKRQRSSRMDMSEIMTIIILFHTSHHRDFKNYYTGYLARFFKSDFPHLLSYTRFLELMPTAVVPLCSYFSSIRSLPTGIEFVDSTSVKVCHNLRIPRHKTLSGLARRGKGTMGWFYGFKLHLIVNHKGGIVAAKITPANTHDTKPVSGMVVNAMDKLYADKGYISKALASELLEQGVTLVNNVRKNMKKKVLSLWDRAMLSRRFIIETINDQLKNISQIEHSRHRSVHGFMLNMIGGLIAYQLKESKPQLNITDVDFNAISVMA | not soluble
MPTSLKDTVKLHNGVEMPWFGLGVFKVENGNEATESVKAAIKNGYRSIDTAAIYKNEEGVGIGIKESGVAREELFITSKVWNEDQGYETTLAAFEKSLERLQLDYLDLYLIHWPGKDKYKDTWRALEKLYKDGKIRAIGVSNFQVHHLEELLKDAEIKPMVNQVEFHPRLTQKELRDYCKGQGIQLEAWSPLMQGQLLDNEVLTQIAEKHNKSVAQVILRWDLQHGVVTIPKSIKEHRIIENADIFDFELSQEDMDKIDALNKDERVGPNPDELLF | soluble
